The results in this text go back to publication PMC9812381 (Science Advances, 2023).

This assay addresses T1, Cullin-5 (CUL5), residues 12-780 (human, UniProt Q93034 12-780).
T1 construct: source: E. coli BL21 (DE3), coexpressed with RBX2, purified (Ni-NTA, SEC); not shown: GB1, N-terminal, cleaved
T1 sequence: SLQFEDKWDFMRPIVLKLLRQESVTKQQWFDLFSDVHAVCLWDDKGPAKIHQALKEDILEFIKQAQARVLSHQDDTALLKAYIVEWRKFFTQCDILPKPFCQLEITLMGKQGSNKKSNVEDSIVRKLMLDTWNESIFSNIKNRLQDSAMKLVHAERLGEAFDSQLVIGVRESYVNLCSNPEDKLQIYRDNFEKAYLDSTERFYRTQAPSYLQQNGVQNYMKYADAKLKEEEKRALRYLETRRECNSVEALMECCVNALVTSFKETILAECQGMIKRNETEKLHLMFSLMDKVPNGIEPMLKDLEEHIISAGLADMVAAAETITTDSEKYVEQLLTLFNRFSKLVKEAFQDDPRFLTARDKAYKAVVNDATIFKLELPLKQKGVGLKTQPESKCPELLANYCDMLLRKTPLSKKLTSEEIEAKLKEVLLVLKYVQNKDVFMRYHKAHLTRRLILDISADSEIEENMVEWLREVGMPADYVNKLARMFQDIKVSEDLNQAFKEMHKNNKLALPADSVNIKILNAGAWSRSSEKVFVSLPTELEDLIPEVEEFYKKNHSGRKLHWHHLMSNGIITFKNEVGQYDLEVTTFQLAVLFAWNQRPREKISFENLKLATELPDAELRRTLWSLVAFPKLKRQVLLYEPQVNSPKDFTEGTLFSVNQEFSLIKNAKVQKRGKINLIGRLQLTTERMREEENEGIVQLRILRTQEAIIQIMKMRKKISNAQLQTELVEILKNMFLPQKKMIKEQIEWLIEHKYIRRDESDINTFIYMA
Nature of the assay: cryo-EM structure. The note with it: both partners purified.

B1: zinc finger RING-box protein 2 (RBX2), residues 1-113 (natural protein)
chain: MADVEDGEETCALASHSGSSGSKSGGDKMFSLKKWNAVAMWSWDVECDTCAICRVQVMDACLRCQAENKQEDCVVVWGECNHSFHNCCMSLWVKQNNRCPLCQQDWVVQRIGK
notes: source: E. coli BL21 (DE3), coexpressed with CUL5, purified (Ni-NTA, SEC)
As for B1, the binding result is “binds”.
